B1: Zinc finger protein Aiolos (Homo sapiens), Q9UKT9 (parent)
chain: MEDIQTNAELKSTQEQSVPAESAAVLNDYSLTKSHEMENVDSGEGPANEDEDIGDDSMKVKDEYSERDENVLKSEPMGNAEEPEIPYSYSREYNEYENIKLERHVVSFDSSRPTSGKMNCDVCGLSCISFNVLMVHKRSHTGERPFQCNQCGASFTQKGNLLRHIKLHTGEKPFKCHLCNYACQRRDALTGHLRTHSVEKPYKCEFCGRSYKQRSSLEEHKERCRTFLQSTDPGDTASAEARHIKAEMGSERALVLDRLASNVAKRKSSMPQKFIGEKRHCFDVNYNSSYMYEKESELIQTRMMDQAINNAISYLGAEALRPLVQTPPAPTSEMVPVISSMYPIALTRAEMSNGAPQELEKKSIHLPEKSVPSERGLSPNNSGHDSTDTDSNHEERQNHIYQQNHMVLSRARNGMPLLKEVPRSYELLKPPPICPRDSVKVINKEGEVMDVYRCDHCRVLFLDYVMFTIHMGCHGFRDPFECNMCGYRSHDRYEFSSHIARGEHRALLK
B2: DNA-binding protein Ikaros (Homo sapiens), Q13422-1 (parent)
chain: MDADEGQDMSQVSGKESPPVSDTPDEGDEPMPIPEDLSTTSGGQQSSKSDRVVASNVKVETQSDEENGRACEMNGEECAEDLRMLDASGEKMNGSHRDQGSSALSGVGGIRLPNGKLKCDICGIICIGPNVLMVHKRSHTGERPFQCNQCGASFTQKGNLLRHIKLHSGEKPFKCHLCNYACRRRDALTGHLRTHSVGKPHKCGYCGRSYKQRSSLEEHKERCHNYLESMGLPGTLYPVIKEETNHSEMAEDLCKIGSERSLVLDRLASNVAKRKSSMPQKFLGDKGLSDTPYDSSASYEKENEMMKSHVMDQAINNAINYLGAESLRPLVQTPPGGSEVVPVISPMYQLHKPLAEGTPRSNHSAQDSAVENLLLLSKAKLVPSEREASPSNSCQDSTDTESNNEEQRSGLIYLTNHIAPHARNGLSLKEEHRAYDLLRAASENSQDALRVVSTSGEQMKVYKCEHCRVLFLDHVMYTIHMGCHGFRDPFECNMCGYHSQDRYEFSSHITRGEHRFHMS

Variants of: B1
Details: with crbn_human CRBN

Variant	effect of a mutation on the interaction
Q147H	decreasing interaction strength

Variants of: B2
Details: with crbn_human CRBN

Variant	effect of a mutation on the interaction
Q146H	decreasing interaction strength
